Experimental data: US6569430

Assays:
[1] = biological target: Campath-1 antigen (partially purified, obtained from a glycolipid extract from human spleen) (human) (UniProt P31358); assay: cell-based or functional assay
[2] = biological target: Campath-1 antigen (partially purified, obtained from a glycolipid extract from human spleen) (human) (UniProt P31358); assay: direct binding ELISA, partially purified Campath-1 antigen coated on wells, detected with biotin anti-rat IgG2b; antibody concentration at 50% maximal binding

| Substance | Concentration of antibody in ug/ml at 50% lysis (complement lysis of human lymphocytes with human serum) [1] | EC50 [2] |
| --- | --- | --- |
| HuVHCAMP(Ser27 to Phe)-RaIgG2B with rat kappa light chain of YTH 34.5HL (antibody) | 16.3 µg/mL | 1.8 µg/mL |
| HuVHCAMP(Ser27 to Phe, Ser30 to Thr)-RaIgG2B with rat kappa light chain of YTH 34.5HL (antibody) | 17.6 µg/mL | 2 µg/mL |
| HuVHCAMP-RaIgG2B with rat kappa light chain of YTH 34.5HL (antibody) |  | 27.3 µg/mL |
